Laboratory results from US20260008847A1 (ELPISCIENCE SUZHOU BIOPHARMA, published 2026).
Positions count from the first letter of the chain named. In names and notes the source's numbering stands.

B1: monoclonal antibody secreted by hybridoma clone 8G2F10 (antibody, V domains shown)
VH: QVQLQQSGAELAKPGASVKLSCKASGYTFTSYWMYWVKQRPGQGLEWIGHINPSSGYTKYNQKFKDKATLTADKSSSTAYMQLSSLTYEDSAVYYCARDPNWDNYWGQGTTLTVSS
VL: DIVMTQSHKFMSTSVGDRVSITCKASQDVSIAVAWYQQKPGQSPKLLIYSASYRYTGVPDRFTGSGSGTDFTFTISSVQAEDLAVYYCQQHYSTPYTFGGGTKLEIK
notes: Mouse hybridoma antibody
B2: hu043.04 (antibody, V domains shown)
VH: QVQLVQSGAEVKKPGASVKVSCKASGYTFTSYWMYWVRQAPGQGLEWIGHINPSSGYTKYNQKFKDRATLTADTSTSTAYMELSSLRSEDTAVYYCARDPNWDNYWGQGTTVTVSS
VL: DIQMTQSPSSLSASVGDRVTITCKASQDVSIAVAWYQQKPGKAPKLLIYSASYRYTGVPSRFSGSGSGTDFTFTISSLQPEDIATYYCQQHYSTPYTFGGGTKLEIK
notes: Humanized human IgG4 antibody with S228P in the constant region; also called hu043VH6 / hu043VL2
B3: hu043.02 (antibody, V domains shown)
VH: B2 VH with A68V, L70M, A79V
VL: B2 VL with Q3V, T20S, S60D
notes: Humanized human IgG4 antibody with S228P in the constant region; also called hu043VH7 / hu043VL4
B4: hu043.07 (antibody, V domains shown)
VH: B2 VH with R67K, T74K
VL: B2 VL with L11M, L78V
notes: Humanized human IgG4 antibody with S228P in the constant region; also called hu043VH9 / hu043VL1
B5: hu043.01 (antibody, V domains shown)
VH: B2 VH
VL: B2 VL with Q3V, T20S, S60D
notes: Humanized human IgG4 antibody with S228P in the constant region; also called hu043VH6 / hu043VL4
B6: hu043.05 (antibody, V domains shown)
VH: B2 VH with A68V, L70M, A79V
VL: B2 VL
notes: Humanized human IgG4 antibody with S228P in the constant region; also called hu043VH7 / hu043VL2
B7: hu043.03 (antibody, V domains shown)
VH: B2 VH with V5Q, V20L, A40R
VL: B2 VL with Q3V, T20S, S60D
notes: Humanized human IgG4 antibody with S228P in the constant region; also called hu043VH8 / hu043VL4
B8: hu043.08 (antibody, V domains shown)
VH: B2 VH with R67K, T74K, V112L
VL: B2 VL with L11M, L78V
notes: Humanized human IgG4 antibody with S228P in the constant region; also called hu043VH10 / hu043VL1
B9: hu043.06 (antibody, V domains shown)
VH: B2 VH with V5Q, V20L, A40R
VL: B2 VL
notes: Humanized human IgG4 antibody with S228P in the constant region; also called hu043VH8 / hu043VL2

Experiments:
[1] = target: Human LILRB3 ECD recombinant protein with 6×His-tag (human) (UniProt O75022); assay: ELISA: plate coated with LILRB3 ECD recombinant protein, antibody at 0.5 ug/mL (method of example 3.2.1); mean OD450 printed over the bar [continued) G]
[2] = target: Human LILRA3 ECD recombinant protein with 6×His-tag (human) (UniProt Q8N6C8); assay: ELISA: plate coated with LILRA3 ECD recombinant protein, antibody at 0.5 ug/mL (method of example 3.2.1); mean OD450 printed over the bar [continued) C]
[3] = target: 6×His-tagged human LILRB2 ECD recombinant protein (human) (UniProt Q8N423); assay: ELISA: plate coated with 6xHis-tagged human LILRB2 ECD, antibody at 0.5 ug/mL, HRP detection antibody; mean OD450 printed over the bar
[4] = target: Human LILRB5 ECD recombinant protein with 6×His-tag (human) (UniProt O75023); assay: ELISA: plate coated with LILRB5 ECD recombinant protein, antibody at 0.5 ug/mL (method of example 3.2.1); mean OD450 printed over the bar [continued) I]
[5] = target: Human LILRA4 ECD recombinant protein with 6×His-tag (human) (UniProt P59901); assay: ELISA: plate coated with LILRA4 ECD recombinant protein, antibody at 0.5 ug/mL (method of example 3.2.1); mean OD450 printed over the bar [continued) D]
[6] = target: Human LILRA1 ECD recombinant protein with 6×His-tag (human) (UniProt O75019); assay: ELISA: plate coated with LILRA1 ECD recombinant protein, antibody at 0.5 ug/mL (method of example 3.2.1); mean OD450 printed over the bar
[7] = target: Human LILRB1 ECD recombinant protein with 6×His-tag (human) (UniProt Q8NHL6); assay: ELISA: plate coated with LILRB1 ECD recombinant protein, antibody at 0.5 ug/mL (method of example 3.2.1); mean OD450 printed over the bar [continued) F]
[8] = target: Human LILRA2 ECD recombinant protein with His-tag (human) (UniProt Q8N149); assay: ELISA: plate coated with LILRA2 ECD recombinant protein, antibody at 0.5 ug/mL (method of example 3.2.1); mean OD450 printed over the bar [continued) B]
[9] = target: Human LILRA5 ECD recombinant protein with 6×His-tag (human) (UniProt A6NI73); assay: ELISA: plate coated with LILRA5 ECD recombinant protein, antibody at 0.5 ug/mL (method of example 3.2.1); mean OD450 printed over the bar [continued) E]
[10] = target: Human LILRB4 ECD recombinant protein with 6×His-tag (human) (UniProt Q8NHJ6); assay: ELISA: plate coated with LILRB4 ECD recombinant protein, antibody at 0.5 ug/mL (method of example 3.2.1); mean OD450 printed over the bar [continued) H]
[11] = target: T1, 6×His-tagged human LILRB2 ECD recombinant protein (human, UniProt Q8N423 22-458, limits assumed); assay: Bio-Layer Interferometry, hybridoma antibody on human LILRB2
T1 construct: Bought protein; not shown: 6×His-tag

[12] = target: T1, 6×His-tagged human LILRB2 ECD …; assay: Octet, 1:1 model
[13] = target: T1, 6×His-tagged human LILRB2 ECD …; assay: Octet, 1:1 model; column printed as 'kd (1/s)', heads of c4 and c5 are swapped
[14] = target: T2, Human LILRB2 stably expressed on EL4 cells (EL4/LILRB2) (human, UniProt Q8N423 22-597); assay: FACS on EL4/LILRB2 cells
T2 construct: also called EL4-LILRB2 cells; cell membrane human LILRB2

[15] = target: T1, 6×His-tagged human LILRB2 ECD …; assay: Octet, 1:1 model; column printed as 'ka (1/Ms)', heads of c4 and c5 are swapped
[16] = target: T2, Human LILRB2 stably expressed on EL4 …; assay: competitive FACS, blockade of HLA-G binding to LILRB2 on cells
Protocol: The blocking activities were determined by quantitating the blockade of the ligands binding to EL4/LILRB2 cells.

[17] = target: T1, 6×His-tagged human LILRB2 ECD …; assay: Biacore, 1:1 model; column printed as 'ka (1/Ms)', heads of c4 and c5 are swapped
[18] = target: T1, 6×His-tagged human LILRB2 ECD …; assay: Biacore, 1:1 model
[19] = target: T1, 6×His-tagged human LILRB2 ECD …; assay: Biacore, 1:1 model; column printed as 'kd (1/s)', heads of c4 and c5 are swapped

T2 sequence (Q8N423 22-597 limits assumed): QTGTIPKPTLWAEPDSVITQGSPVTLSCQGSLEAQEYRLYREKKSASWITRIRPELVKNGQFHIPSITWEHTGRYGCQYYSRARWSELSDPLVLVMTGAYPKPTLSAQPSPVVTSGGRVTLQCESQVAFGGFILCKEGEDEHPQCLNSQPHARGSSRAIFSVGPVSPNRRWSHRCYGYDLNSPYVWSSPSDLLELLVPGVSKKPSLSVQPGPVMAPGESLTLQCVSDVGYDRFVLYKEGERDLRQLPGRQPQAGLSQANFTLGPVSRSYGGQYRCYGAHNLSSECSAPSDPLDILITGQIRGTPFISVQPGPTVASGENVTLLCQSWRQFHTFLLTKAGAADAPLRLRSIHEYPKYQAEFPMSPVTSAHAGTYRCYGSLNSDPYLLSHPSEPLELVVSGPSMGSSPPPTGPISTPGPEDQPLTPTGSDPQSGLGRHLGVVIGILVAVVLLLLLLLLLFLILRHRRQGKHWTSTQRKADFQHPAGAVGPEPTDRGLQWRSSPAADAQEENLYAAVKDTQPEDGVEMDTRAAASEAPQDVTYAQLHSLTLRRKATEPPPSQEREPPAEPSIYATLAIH
T1 sequence (Q8N423 22-458 limits assumed): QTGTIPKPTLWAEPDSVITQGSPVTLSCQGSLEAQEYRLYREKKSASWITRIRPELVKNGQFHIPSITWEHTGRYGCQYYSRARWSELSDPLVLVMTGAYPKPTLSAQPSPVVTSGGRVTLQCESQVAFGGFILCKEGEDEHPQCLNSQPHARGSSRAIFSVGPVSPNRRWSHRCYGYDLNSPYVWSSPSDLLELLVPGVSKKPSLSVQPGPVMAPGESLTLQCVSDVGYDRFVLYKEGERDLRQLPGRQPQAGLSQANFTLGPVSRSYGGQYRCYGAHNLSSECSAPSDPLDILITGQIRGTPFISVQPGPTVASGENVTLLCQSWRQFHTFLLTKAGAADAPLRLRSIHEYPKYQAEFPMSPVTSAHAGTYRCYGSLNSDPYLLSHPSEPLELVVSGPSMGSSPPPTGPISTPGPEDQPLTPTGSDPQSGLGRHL
Sequence of Human LILRA2 ECD recombinant protein with His-tag (human) (Q8N149 24-449 limits assumed): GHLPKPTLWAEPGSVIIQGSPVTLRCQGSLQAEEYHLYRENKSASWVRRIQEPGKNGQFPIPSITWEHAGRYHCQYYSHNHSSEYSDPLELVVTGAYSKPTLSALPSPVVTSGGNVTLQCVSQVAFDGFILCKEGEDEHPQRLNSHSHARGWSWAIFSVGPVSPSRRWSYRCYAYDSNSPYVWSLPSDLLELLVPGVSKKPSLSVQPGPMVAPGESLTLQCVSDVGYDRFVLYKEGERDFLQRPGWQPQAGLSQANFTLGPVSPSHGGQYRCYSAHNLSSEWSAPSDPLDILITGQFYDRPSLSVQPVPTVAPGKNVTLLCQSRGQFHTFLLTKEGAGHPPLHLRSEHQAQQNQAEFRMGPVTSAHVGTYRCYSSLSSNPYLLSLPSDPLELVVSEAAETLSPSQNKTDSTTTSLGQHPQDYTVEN
Sequence of Human LILRA4 ECD recombinant protein with 6×His-tag (human) (P59901 24-446 limits assumed): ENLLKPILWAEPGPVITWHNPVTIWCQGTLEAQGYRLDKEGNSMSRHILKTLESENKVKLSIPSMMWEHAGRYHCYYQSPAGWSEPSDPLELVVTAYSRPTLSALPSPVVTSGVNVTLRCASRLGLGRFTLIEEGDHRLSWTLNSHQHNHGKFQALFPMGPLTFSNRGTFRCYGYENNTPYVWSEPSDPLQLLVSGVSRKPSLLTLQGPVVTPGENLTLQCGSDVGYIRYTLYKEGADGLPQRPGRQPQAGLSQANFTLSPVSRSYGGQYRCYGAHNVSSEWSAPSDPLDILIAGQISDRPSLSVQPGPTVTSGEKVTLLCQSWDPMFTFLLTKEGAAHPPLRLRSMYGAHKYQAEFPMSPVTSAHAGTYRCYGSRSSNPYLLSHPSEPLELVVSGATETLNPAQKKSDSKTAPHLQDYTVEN
Sequence of Human LILRA5 ECD recombinant protein with 6×His-tag (human) (A6NI73 42-268 limits assumed, form in doubt): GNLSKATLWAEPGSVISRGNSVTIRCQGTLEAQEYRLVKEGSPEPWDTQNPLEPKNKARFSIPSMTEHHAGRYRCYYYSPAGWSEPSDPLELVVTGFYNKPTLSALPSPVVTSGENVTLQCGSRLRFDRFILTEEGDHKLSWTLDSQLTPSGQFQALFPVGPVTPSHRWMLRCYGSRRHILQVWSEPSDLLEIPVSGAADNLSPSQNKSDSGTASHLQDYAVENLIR
Sequence of Human LILRA3 ECD recombinant protein with 6×His-tag (human) (Q8N6C8 24-439 limits assumed, form in doubt): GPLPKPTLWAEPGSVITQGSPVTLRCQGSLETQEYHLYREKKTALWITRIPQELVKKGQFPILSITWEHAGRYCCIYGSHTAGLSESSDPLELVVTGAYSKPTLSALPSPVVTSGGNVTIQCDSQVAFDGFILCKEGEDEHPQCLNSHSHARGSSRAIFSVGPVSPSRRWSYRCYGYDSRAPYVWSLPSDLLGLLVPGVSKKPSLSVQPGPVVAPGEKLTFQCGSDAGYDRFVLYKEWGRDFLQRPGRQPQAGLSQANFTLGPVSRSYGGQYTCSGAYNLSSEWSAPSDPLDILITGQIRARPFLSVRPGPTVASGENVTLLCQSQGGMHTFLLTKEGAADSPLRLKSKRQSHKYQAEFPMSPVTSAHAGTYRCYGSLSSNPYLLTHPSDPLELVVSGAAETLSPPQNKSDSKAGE
Sequence of 6×His-tagged human LILRB2 ECD recombinant protein (human) (Q8N423 22-458 limits assumed): as the sequence (Q8N423 22-458 limits assumed) above
Sequence of Human LILRA1 ECD recombinant protein with 6×His-tag (human) (O75019 17-461 limits assumed): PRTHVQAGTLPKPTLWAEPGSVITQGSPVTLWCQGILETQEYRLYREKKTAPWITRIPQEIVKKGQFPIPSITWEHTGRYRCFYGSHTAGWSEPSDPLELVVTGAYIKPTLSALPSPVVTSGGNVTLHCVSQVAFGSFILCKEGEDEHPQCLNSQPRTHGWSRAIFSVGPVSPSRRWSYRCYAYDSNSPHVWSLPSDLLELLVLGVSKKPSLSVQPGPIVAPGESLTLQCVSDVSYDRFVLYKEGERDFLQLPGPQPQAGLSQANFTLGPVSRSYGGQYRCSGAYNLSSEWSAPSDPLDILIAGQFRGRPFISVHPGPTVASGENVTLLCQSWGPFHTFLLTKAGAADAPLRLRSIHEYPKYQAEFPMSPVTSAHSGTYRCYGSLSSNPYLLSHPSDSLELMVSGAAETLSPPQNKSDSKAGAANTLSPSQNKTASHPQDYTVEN
Sequence of Human LILRB5 ECD recombinant protein with 6×His-tag (human) (O75023 24-458 limits assumed): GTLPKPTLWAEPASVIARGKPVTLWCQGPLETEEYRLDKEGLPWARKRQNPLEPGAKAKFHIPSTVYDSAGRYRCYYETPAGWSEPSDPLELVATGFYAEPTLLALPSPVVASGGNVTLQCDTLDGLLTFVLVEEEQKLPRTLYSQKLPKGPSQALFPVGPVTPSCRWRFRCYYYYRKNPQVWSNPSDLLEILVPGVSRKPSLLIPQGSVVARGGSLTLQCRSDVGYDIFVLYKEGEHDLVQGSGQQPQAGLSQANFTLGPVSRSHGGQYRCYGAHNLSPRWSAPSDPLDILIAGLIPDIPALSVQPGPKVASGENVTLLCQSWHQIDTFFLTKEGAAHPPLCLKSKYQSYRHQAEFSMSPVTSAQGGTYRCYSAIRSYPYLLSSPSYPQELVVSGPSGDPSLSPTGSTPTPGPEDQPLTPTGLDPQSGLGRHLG
Sequence of Human LILRB1 ECD recombinant protein with 6×His-tag (human) (Q8NHL6 24-458 limits assumed): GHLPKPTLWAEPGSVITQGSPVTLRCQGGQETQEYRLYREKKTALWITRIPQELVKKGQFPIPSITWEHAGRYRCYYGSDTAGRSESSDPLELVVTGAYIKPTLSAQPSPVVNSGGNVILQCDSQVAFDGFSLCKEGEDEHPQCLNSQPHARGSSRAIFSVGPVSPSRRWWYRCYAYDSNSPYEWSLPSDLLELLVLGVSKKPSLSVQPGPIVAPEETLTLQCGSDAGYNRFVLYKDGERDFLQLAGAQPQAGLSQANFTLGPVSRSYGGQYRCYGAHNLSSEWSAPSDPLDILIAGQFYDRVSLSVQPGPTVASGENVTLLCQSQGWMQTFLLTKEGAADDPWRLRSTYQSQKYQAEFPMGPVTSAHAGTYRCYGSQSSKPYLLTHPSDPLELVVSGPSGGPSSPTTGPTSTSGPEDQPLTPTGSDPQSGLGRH

Row | Molecule | Kd [12] [nM] | kon [13] [M⁻¹ s⁻¹] | EC50 [14] [nM] | TOP MFI [14] [MFI] | koff [15] [s⁻¹] | IC50 [16] [nM] | TOP Blocking (%) [16] [%] | also measured
1 | hIgG4 iso (antibody) |  |  |  |  |  |  |  | OD450 [1]: 0.08; OD450 [2]: 0.08; OD450 [3]: 0.08; OD450 [4]: 0.08; OD450 [5]: 0.16; OD450 [6]: 0.15; OD450 [7]: 0.08; OD450 [8]: 0.07; OD450 [9]: 0.08; OD450 [10]: 0.14
2 | B1 |  |  |  |  |  |  |  | Kd [11]: 1.35 nM; koff [11]: 0.00139 s⁻¹; kon [11]: 1.04e+06 M⁻¹ s⁻¹
3 | B2 | 3.78 | 488000 | 0.43 | 45000 | 0.00185 | 0.11 | 100 | 
4 | B3 | 3.57 | 517000 | 0.35 | 45700 | 0.00184 | 0.1 | 100 | 
5 | B4 |  |  |  |  |  | 0.19 | 100 | koff [17]: 0.00379 s⁻¹; Kd [18]: 1.68 nM; kon [19]: 2.25e+06 M⁻¹ s⁻¹
6 | B5 | 3.19 | 516000 | 0.42 | 45800 | 0.00164 | 0.11 | 100 | 
7 | B6 | 3.9 | 501000 | 0.42 | 45100 | 0.00199 | 0.09 | 100 | 
8 | B7 | 5.22 | 466000 | 0.41 | 46300 | 0.00243 | 0.1 | 100 | 
9 | B8 |  |  |  |  |  | 0.19 | 100 | koff [17]: 0.00378 s⁻¹; Kd [18]: 1.71 nM; kon [19]: 2.21e+06 M⁻¹ s⁻¹
10 | B9 | 3.63 | 512000 | 0.4 | 45700 | 0.00186 | 0.11 | 100 | 
